{"source": "patent US20180147231A1", "about": "“METHOD FOR TREATMENT AND PROGNOSIS OF COLORECTAL CANCER” (Oxford University Innovation Limited, priority 2015, published 2018)", "format_in_all_cases": "cell-based, human", "key": {"[1]": {"test_system": "SOCS3 expression in CRC lines (Colo205, LS103, SW948, T84, SW480, HCT116)", "experiment": "qPCR of SOCS3 after IL-22 stimulation of CRC cell lines", "settings": "24 h stimulation with IL-22, n=3", "from_the_text": "(A) qPCR analysis of IL22RA1 expression level on 3 KRAS-WT (Colo205, LS103, SW948) and 3 KRAS-mutant (T84, SW480, HCT116) CRC cell lines. n=3 *p<0.05, **p<0.01, one-way ANOVA with Tukey's post test for multiple comparisons. (B) Representative FACS plots of IL-22RA1 expression on the Colo205 (KRAS-WT, IL-22RA1^high), T84 (KRAS-Mut, IL-22RA1^high), and SW480 (KRAS-mutant, IL-22RA1^low) lines. (C) Western blot analysis of activation of STAT3, ERK, and Akt signaling pathways in 6 CRC lines following 24 h stimulation with 1 ng/mL IL-22, 10 ng/mL IL-22, and 1 ng/mL IL-6. 1 blot representative of 3 independent experiments.\nColo205, LS1034, SW948, SW480, T84, and HCT116 (ATCC) colorectal cancer cell (CRC) lines were a generous gift from Dr. Simon Leedham and were confirmed to be mycoplasma free. X-MAN DLD-1 isogenic cells were purchased from Horizon Discovery. […]\nRNA was extracted from cultured monolayers of CRC lines, suspensions of LIM1863 spheroids, and CRC line derived spheres using the RNeasy Mini Kit (Qiagen) according to the manufacturers protocol. cDNA was synthesized using the High-Capacity cDNA Reverse Transcription Kit (Applied Biosystems). Gene expression was analyzed using Taqman® Gene Expression Assays (Applied Biosystems) and run with Precision 2× Master Mix (Primerdesign) in 384 well plates using the ViiA7 Real-Time PCR System (Applied Biosystems). […]"}, "[2]": {"test_system": "T84 cells (KRAS-mutant, IL22RA1 high)", "experiment": "Chemotherapy killing assay (MTT), T84 cells", "settings": "48 h pre-treatment with 10 ng/mL IL-22, then 50 μM oxaliplatin or 5-FU for 48 h", "protocol": "(A) MTT assay on Colo205, T84, and SW480 cells pre-treated or not pre-treated for 48 h with 10 ng/mL IL-22, then treated with 50 μM oxaliplatin or 5-FU for 48 h. MTT was added 2 h prior to end of 48 h incubation. Formazan particles were dissolved in DMSO and absorbance was measured at 540 nm. Raw absorbances are blank corrected, normalized to a no treatment or IL-22 only, and represented as a % reduction in viability compared to the no treatment or IL-22 only conditions. n=3 independent experiments with 3 experimental replicates, *p<0.05, ****p<0.0001, one-way ANOVA with Tukey's post test for multiple comparisons.\n(§1) Colo205, T84, SW480, and DLD-1 cells were seeded at a density of 1×10^4 cells/well in 48 well plates. Cells were pre-treated for 48 h with 10 ng/mL IL-22, then subjected to 50 μM oxaliplatin (Sigma) or 5-fluorouracil (Sigma) or vehicle control (DMSO) for 48 h. 50 μg Methylthiazolyldiphenyl-tetrazolium bromide (MTT) (Sigma) was added to each well 2 h prior to the end of incubation. At the end of the 48 h incubation supernatants were aspirated and formazan particles were solubilized with DMSO and transferred to a fresh plate. Absorbance was measured at 540 nm on Spectrostar Nano plate reader (BMG Labtech)."}, "DLD-1 KRAS MUT cells": {"test_system": "DLD-1 KRAS MUT cells", "experiment": "Chemotherapy killing assay (MTT), DLD-1 KRAS MUT", "settings": "48 h pre-treatment with 10 ng/mL IL-22, then 50 μM 5-FU for 48 h", "protocol": "Therefore this isogenic pair differs only in KRAS mutation status and allows a clean system for comparison of KRAS-dependent IL-22 effects without inter-cell line mutational heterogeneity. (A) Representative FACS plots of IL-22RA1 expression and quantification of mean fluorescence intensity (WI) showing similar IL-22RA1 expression in the isogenic pair (4 experimental replicates). […] MTT was added 2 h prior to end of 48 h incubation. Formazan particles were dissolved in DMSO and absorbance was measured at 540 nm. Raw absorbances are blank corrected, normalized to a no treatment, and represented as a % viability compared to the no treatment condition. n=5 independent experiments with 3 experimental replicates. p values computed by non-parametric Mann-Whitney test comparing 5 FU alone to IL-22 pretreatment with 5 FU for each DLD-1 line.\nas §1, with “At the end of the 48 h incubation supernatants were aspirated and formazan particles were solubilized with DMSO and transferred to a fresh plate.” left out"}}}
{"molecule": "IL-22: recombinant human IL-22 (R&D Systems), IL-10 superfamily cytokine; human sequence SEQ ID NO: 5 (protein, listed as Homo sapiens) MAALQKSVSSFLMGTLATSCLLLLALLVQGGAAAPISSHCRLDKSNFQQPYITNRTFMLAKEASLADNNTDVRLIGEKLFHGVSMSERCYLMKQVLNFTLEEVLFPQSDRFQPYMQEVVPFLARLSNRLSTCHIEGDDLHIQRNVQKLKDTVKKLGESGEIKAIGELDLLFMSLRNACI", "values": [{"measurement": "SOCS3 expression (confirmation of active downstream IL-22 signaling)", "setting": "[1]", "result": "upregulation of SOCS3"}, {"measurement": "Protection against oxaliplatin and 5-fluorouracil mediated cell death", "setting": "[2]", "result": "protects against oxaliplatin and 5 fluorouracil mediated cell death"}, {"measurement": "Protection against 5-fluorouracil mediated cell death", "setting": "DLD-1 KRAS MUT cells", "result": "protects against 5 fluorouracil mediated cell death"}]}
